Data published in patent US20210246200A1 (UNIVERSIT T Z RICH, published 2021).
Changes are numbered by the printed parent chain. Names and notes keep the numbering of the source.

B1: 104346 (antibody, V domains shown)
VH: QVQLVESGGGVVQPGRSLRLSCAASGYTFSSYLIEWVRQAPGKGLEWVAVINPGSGGTNYADSVKGRFTISADKSKNTAYLQMNSLRAEDTAVYYCARWRGDGYYAYFDVWGQGTTVTVSS
VL: DIVLTQSPLSLPVTLGQPASISCKASQSVDYDGDSYMNWYQQRPGQSPRLLIYAASNLESGVPDRFSGSGSGTDFTLKISRVEAEDVGVYYCQQSNEDPYTFGGGTKVEIK
notes: VH3s/VK2
B2: 104341 (antibody, V domains shown)
VH: QVQLVQSGAEVKKPGSSVKVSCKASGYAFTNYLIEWVRQAPGQGLEWMGVINPGSGGTNYNEKFKGRVTITADKSTSTAYMELSSLRSEDTAVYYCARWRGDGYYAYFDVWGQGTTVTVSS
VL: AIRLTQSPSSFSASTGDRVTITCKASQSVDYDGDSYMNWYQQKPGKAPKLLIYAASNLESGVPSRFSGSGSGTDFTLTISSLQSEDFATYYCQQSNEDPYTFGGGTKVEIK
notes: VH1/VK1
B3: 104343_VH1D98E_VK2D28Q (antibody, V domains shown)
VH: B2 VH with D102E
VL: B1 VL with D32Q
notes: Human IgG1 Fc domain with the N297A point mutation
B4: 104345 (antibody, V domains shown)
VH: B1 VH
VL: B2 VL
notes: VH3s/VK1
B5: 104344 (antibody, V domains shown)
VH: B2 VH
VL: EIVLTQSPATLSVSPGERATLSCRASQSVSYDGDSYMNWYQQKPGQAPRLLIYAASNLASGIPARFSGSGSGTEFTLTISSLQSEDAAVYYCQQSNEDPYTFGGGTKVEIK
notes: VH1/VK3s
B6: 104343_VH1D98E_VK2 (antibody, V domains shown)
VH: B2 VH with D102E
VL: B1 VL
notes: as for B3
B7: 108929 (antibody, human IgG1, kappa, N297A, V domains shown)
VH: EVQLVQSGAEVKKPGESLKISCKGSGYAFSNYLIEWVRQMPGKGLEWMGVINPGSGGTYYNEKFKGQVTISADKSISTAYLQWSSLKASDTAMYYCARWRGEGYYAYFDVWGQGTTVTVSS
VL: AIRLTQSPSSFSASTGDRVTITCKASQSVDYQGDSYMNWYQQKPGKAPKLLIYTASNLESGVPSRFSGSGSGTDFTLTISSLQSEDFATYYCQQSNEDPYTFGGGTKVEIKR
B8: 104350 (antibody, V domains shown)
VH: B7 VH with S30T, Y59N, E102D
VL: B5 VL
notes: VH5/VK3s
B9: Antibody No: 35 (antibody, human IgG1, kappa, N297A, V domains shown)
VH: B7 VH with F108Y
VL: B7 VL with M37L, T54S
notes: VK M33L + A50S; HEK293F supernatant
B10: Antibody No: 30 (antibody, human IgG1, kappa, N297A, V domains shown)
VH: B7 VH
VL: B7 VL with M37L, T54S
notes: VH N58Y + T30S; VK M33L + A50S; HEK293F supernatant
B11: Antibody No: 27 (antibody, human IgG1, kappa, N297A, V domains shown)
VH: B7 VH
VL: B7 VL with M37L, T54A
notes: VH N58Y + T30S; VK M33L; HEK293F supernatant
B12: Antibody No: 32 (antibody, human IgG1, kappa, N297A, V domains shown)
VH: B7 VH with F108Y
VL: B7 VL with M37L, T54A
notes: VK M33L; HEK293F supernatant
B13: Antibody No: 29 (antibody, human IgG1, kappa, N297A, V domains shown)
VH: B7 VH
VL: B7 VL
notes: VH N58Y + T30S; VK A50T; HEK293F supernatant
B14: Antibody No: 20 (antibody, human IgG1, kappa, N297A, V domains shown)
VH: B7 VH with S30T, F108Y
VL: B7 VL with M37L, T54S
notes: VK M33L + A50S; also called 108928
B15: 104349_VH5_VK2D28Q (antibody, V domains shown)
VH: B7 VH with S30T, Y59N, E102D
VL: B1 VL with D32Q
notes: as for B3
B16: Antibody No: 13 (antibody, human IgG1, kappa, N297A, V domains shown)
VH: B7 VH with S30T
VL: B7 VL with T54S
notes: VH N58Y; VK A50S; also called 108925
B17: Antibody No: 25 (antibody, human IgG1, kappa, N297A, V domains shown)
VH: B7 VH with Y59N, F108Y
VL: B7 VL with M37L, T54S
notes: as for B9
B18: 104349_VH5D98E_VK2 (antibody, V domains shown)
VH: B7 VH with S30T, Y59N
VL: B1 VL
notes: as for B3
B19: Antibody No: 8 (antibody, human IgG1, kappa, N297A, V domains shown)
VH: B7 VH with S30T, Y59N, F108Y
VL: B7 VL with T54S
notes: VK A50S; also called 108923
B20: Antibody No: 15 (antibody, human IgG1, kappa, N297A, V domains shown)
VH: B7 VH with S30T
VL: B7 VL with M37L, T54S
notes: VH N58Y; VK M33L + A50S; also called 108926
B21: Antibody No: 28 (antibody, human IgG1, kappa, N297A, V domains shown)
VH: B7 VH
VL: B7 VL with T54S
notes: VH N58Y + T30S; VK A50S; HEK293F supernatant; 108930 is kept apart
B22: Antibody No: 26 (antibody, human IgG1, kappa, N297A, V domains shown)
VH: B7 VH
VL: B7 VL with T54A
notes: VH N58Y + T30S; VK WT; HEK293F supernatant; 108929 is kept apart
B23: Antibody No: 24 (antibody, human IgG1, kappa, N297A, V domains shown)
VH: B7 VH with Y59N, F108Y
VL: B7 VL
notes: VK A50T; HEK293F supernatant
B24: Antibody No: 33 (antibody, human IgG1, kappa, N297A, V domains shown)
VH: B7 VH with F108Y
VL: B7 VL with T54S
notes: VK A50S; HEK293F supernatant
B25: 104349_VH5D98E_VK2D28Q (antibody, V domains shown)
VH: B7 VH with S30T, Y59N
VL: B1 VL with D32Q
notes: as for B3
B26: Antibody No: 12 (antibody, human IgG1, kappa, N297A, V domains shown)
VH: B7 VH with S30T
VL: B7 VL with M37L, T54A
notes: VH N58Y; VK M33L; also called 108924
B27: 108930 (antibody, human IgG1, kappa, N297A, V domains shown)
VH: B7 VH
VL: B7 VL with M37L, T54S
B28: Antibody No: 34 (antibody, human IgG1, kappa, N297A, V domains shown)
VH: B7 VH with F108Y
VL: B7 VL
notes: VK A50T; HEK293F supernatant
B29: Antibody No: 31 (antibody, human IgG1, kappa, N297A, V domains shown)
VH: B7 VH with F108Y
VL: B7 VL with T54A
notes: VK WT; HEK293F supernatant

What was measured:
Proleukin® (aldesleukin) [1] = biological target: T1, Proleukin® (aldesleukin) (human, UniProt P60568 21-153, limits assumed); experiment: ELISA, coated Proleukin, mean of 3 experiments;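 further: binding of anti-human IL-2 antibodies, tested as an 11-point dilution series for 2 hours, to plate-bound IL-2, detected via streptavidin-HRP with absorbance read at 450 nm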
T1 construct: Variant of human wt IL-2 with C145S (C125S on mature IL-2); also called IL-2 (Proleukin®); human IL-2 (Proleukin)
Description: ELISA plates (Corning) were coated with human IL-2 (Proleukin) at 10 μg/mL in PBS overnight at 4° C. The plates were washed 6 times with PBST, then blocked in 1% BSA/PBST for 2 hours. After blocking and washing, the anti-human IL-2 antibodies were added on the plate in an 11-point dilution series in 1% BSA/PBST and incubated for 2 hours. […] The plates were then washed again and incubated with Streptavidin-Horseradish Peroxidase in 1% BSA/PBS for 45 minutes. After washing, the substrate (R&D Systems) was added into the plates and the enzymatic reaction was stopped after 3 minutes by adding Stop Solution. The plates were read by a microplate reader at 450 nm with a wavelength correction set to 540 nm.

Proleukin® (aldesleukin) [2] = biological target: T1, Proleukin® (aldesleukin); experiment: SET assay (solution equilibration titration, MSD)
Description: A 22 serial 2n dilution of the antigen was prepared in sample buffer. A constant concentration of the antibody was added. […] A volume of 60 μl of each antigen:antibody mix was distributed in duplicates to a 384-well polypropylene microtiter plate (PP MTP). Sample buffer served as negative control and a sample containing no antigen as positive control (Bₘₐₓ). The plate was sealed and incubated overnight (o/n) at room temperature (RT). A 384-well standard MSD array plate was coated o/n with 2 μg/ml of IL-2. After three times washing with washing buffer, the plate was blocked with 50 μl/well blocking buffer for 1 hour at RT. After washing, a volume of 30 μl/well of the antigen:antibody mix was transferred from the PP MTP to the coated MSD plate and incubated for 20 min at RT. After an additional wash step, 30 μl of detection antibody (diluted 1:2000) in sample buffer was added to each well and incubated for 30 min at RT. The MSD plate was washed and 35 μl/well of read buffer was added and incubated for 5 min. ECL signals were measured with the MSD SECTOR Imager 6000.

Proleukin® (aldesleukin) [3] = biological target: T1, Proleukin® (aldesleukin); experiment: ELISA, coated Proleukin, serially diluted supernatant
Proleukin® (aldesleukin) [4] = biological target: T1, Proleukin® (aldesleukin); experiment: ELISA, coated Proleukin, HEK293F supernatant 1:2
Description: Subsequently, hIL-2 binding efficiency of the antibodies present in the supernatants was determined using ELISA. In brief, ELISA plates (Maxisorp 96-well black microtiter plate) were coated overnight at 4° C. with 100p/well of Proleukin® (5 μg/ml PBS). ELISA plates were washed once with TBST (1×TBS/0.05% Tween 20) using a plate-washer (BioTek). […] After removal of the blocking buffer, plates were washed once with TBST using the plate washer. Supernatants were diluted 1:2 in blocking buffer and 50 μl transferred to the designated well of the ELISA plate. Each sample was present on three ELISA plates. The three plates were incubated at RT under gentle agitation. […] The other two plates were washed either every hour three times with TBST for 4 hours or washed every hour three times for 12 hours before adding the detection antibody. […] Luminescence signal was measured after 5 minutes incubation in the dark. […] All ELISA values are mean values based on two measurements.

T1 sequence (P60568 other isoform, or with tags, fused parts or gaps limits assumed): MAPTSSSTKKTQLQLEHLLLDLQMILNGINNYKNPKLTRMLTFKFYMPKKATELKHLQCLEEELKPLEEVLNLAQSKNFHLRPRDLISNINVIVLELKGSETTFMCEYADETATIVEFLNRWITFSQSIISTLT

| Binder | EC50 (Proleukin® (aldesleukin) [1]) [nM] | Kd (Proleukin® (aldesleukin) [2]) [nM] | EC50 (Proleukin® (aldesleukin) [3]) [nM] | ELISA value (Normal ELISA) (Proleukin® (aldesleukin) [4]) [luminescence signal] | ELISA value (wash 3x every hour for 4 HRS) (Proleukin® (aldesleukin) [4]) [luminescence signal] | ELISA value (wash 3x every hour for 12 HRS) (Proleukin® (aldesleukin) [4]) [luminescence signal] |
| --- | --- | --- | --- | --- | --- | --- |
| B1 | 1.7 | – | – | – | – | – |
| B2 | 0.4 | – | – | – | – | – |
| B3 | 0.75 | 0.111 | – | – | – | – |
| B4 | 2.9 | – | – | – | – | – |
| B5 | 0.7 | – | – | – | – | – |
| B6 | 0.57 | 0.098 | – | – | – | – |
| B7 | 0.15 | – | – | – | – | – |
| B8 | 0.8 | – | – | – | – | – |
| B9 | – | – | 0.72 | 4910 | 4040 | 1790 |
| B10 | – | – | 0.22 | 14900 | 14400 | 2800 |
| B11 | – | – | 0.39 | 7760 | 7000 | 2770 |
| B12 | – | – | 0.65 | 7190 | 6210 | 3330 |
| B13 | – | – | 0.24 | 6950 | 6850 | 2720 |
| B14 | 0.71 | – | 0.27 | 11700 | 11100 | 5200 |
| B15 | 0.43 | 0.069 | – | – | – | – |
| B16 | 0.06 | – | 0.19 | 14500 | 14600 | 4520 |
| B17 | – | – | 0.42 | 3570 | 3050 | 1080 |
| B18 | 0.56 | 0.178 | – | – | – | – |
| B19 | 0.05 | – | 0.24 | 9370 | 7310 | 2530 |
| B20 | 0.05 | – | 0.28 | 11100 | 10500 | 3800 |
| B21 | – | – | 0.16 | 18500 | 18100 | 5870 |
| B22 | – | – | 0.49 | 4030 | 4210 | 1800 |
| B23 | – | – | 0.59 | 2770 | 1880 | 674 |
| B24 | – | – | 0.67 | 3990 | 3570 | 1820 |
| B25 | 0.66 | 0.188 | – | – | – | – |
| B26 | 0.11 | – | 0.25 | 20000 | 17400 | 5960 |
| B27 | 0.06 | – | – | – | – | – |
| B28 | – | – | 0.65 | 3860 | 3080 | 1360 |
| B29 | – | – | 0.39 | 11400 | 10300 | 3400 |
